From publication PMC13095208, “Structural mechanisms of pump assembly and drug transport in the AcrAB–TolC efflux system” (eLife, 2026)

Biological target: the molecule itself
Experiment: cryo-EM structure

B1: AcrA, periplasmic membrane fusion protein of Escherichia coli (natural protein)
chain: CDDKQAQQGGQQMPAVGVVTVKTEPLQITTELPGRTSAYRIAEVRPQVSGIILKRNFKEGSDIEAGVSLYQIDPATYQATYDSAKGDLAKAQAAANIAQLTVNRYQKLLGTQYISKQEYDQALADAQQANAAVTAAKAAVETARINLAYTKVTSPISGRIGKSNVTEGALVQNGQATALATVQQLDPIYVDVTQSSNDFLRLKQELANGTLKQENGKAKVSLITSDGIKFPQDGTLEFSDVTVDQTTGSITLRAIFPNPDHTLLPGMFVRARLEEGLNPNAILVPQQGVTRTPRGDATVLVVGADDKVETRPIVASQAIGDKWLVTEGLKAGDRVVISGLQKVRPGVQVKAQEVTADNNQQAASGAQPEQSKS
stoichiometry N: 6 protomers
